Results on two molecules are retold here after patent US20130074217A1 (NUTECH VENTURES, published 2013).

One assay has as its target T1, EFR-YFPc / EFR-YFPn (Arabidopsis thaliana, UniProt C0LGT6 25-1031).
T1 construct: Two BiFC constructs used in both combinations, expressed in N. benthamiana leaves; not shown: split-YFP half (YFPc or YFPn) from the BiFC vector
T1 sequence (looked up): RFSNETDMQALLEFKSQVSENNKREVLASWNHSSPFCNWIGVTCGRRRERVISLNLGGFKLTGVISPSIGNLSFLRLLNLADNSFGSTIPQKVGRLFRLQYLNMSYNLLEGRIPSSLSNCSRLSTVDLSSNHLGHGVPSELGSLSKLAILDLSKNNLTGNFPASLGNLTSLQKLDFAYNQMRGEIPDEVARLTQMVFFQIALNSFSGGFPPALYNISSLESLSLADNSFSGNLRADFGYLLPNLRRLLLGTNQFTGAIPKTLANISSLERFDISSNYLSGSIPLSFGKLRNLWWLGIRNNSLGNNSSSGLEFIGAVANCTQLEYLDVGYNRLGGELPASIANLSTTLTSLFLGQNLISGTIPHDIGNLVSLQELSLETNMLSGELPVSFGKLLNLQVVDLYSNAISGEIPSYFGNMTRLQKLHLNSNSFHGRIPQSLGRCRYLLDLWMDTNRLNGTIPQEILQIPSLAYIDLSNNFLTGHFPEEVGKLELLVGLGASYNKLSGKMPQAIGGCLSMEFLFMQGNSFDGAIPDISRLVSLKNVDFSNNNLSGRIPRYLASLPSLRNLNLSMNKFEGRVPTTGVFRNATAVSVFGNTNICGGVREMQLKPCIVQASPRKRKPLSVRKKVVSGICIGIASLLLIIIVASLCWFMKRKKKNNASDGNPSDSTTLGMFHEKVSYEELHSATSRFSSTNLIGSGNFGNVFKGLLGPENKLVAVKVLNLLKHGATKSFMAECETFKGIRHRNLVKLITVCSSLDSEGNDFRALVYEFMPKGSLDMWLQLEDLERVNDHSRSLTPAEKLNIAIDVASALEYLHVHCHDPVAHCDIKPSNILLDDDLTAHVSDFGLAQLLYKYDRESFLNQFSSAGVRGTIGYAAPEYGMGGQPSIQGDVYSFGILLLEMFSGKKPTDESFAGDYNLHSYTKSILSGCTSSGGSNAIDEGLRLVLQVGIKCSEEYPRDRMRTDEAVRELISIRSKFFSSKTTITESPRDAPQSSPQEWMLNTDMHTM
The experiment in a line: bimolecular fluorescence complementation in N. benthamiana (panel B).

The target of another assay is T2, FLS2-YFPc / FLS2-YFPn (Arabidopsis thaliana, UniProt Q9FL28 24-1173).
T2 construct: Two BiFC constructs used in both combinations, expressed in N. benthamiana leaves; not shown: split-YFP half (YFPc or YFPn) from the BiFC vector
T2 sequence (Q9FL28 24-1173): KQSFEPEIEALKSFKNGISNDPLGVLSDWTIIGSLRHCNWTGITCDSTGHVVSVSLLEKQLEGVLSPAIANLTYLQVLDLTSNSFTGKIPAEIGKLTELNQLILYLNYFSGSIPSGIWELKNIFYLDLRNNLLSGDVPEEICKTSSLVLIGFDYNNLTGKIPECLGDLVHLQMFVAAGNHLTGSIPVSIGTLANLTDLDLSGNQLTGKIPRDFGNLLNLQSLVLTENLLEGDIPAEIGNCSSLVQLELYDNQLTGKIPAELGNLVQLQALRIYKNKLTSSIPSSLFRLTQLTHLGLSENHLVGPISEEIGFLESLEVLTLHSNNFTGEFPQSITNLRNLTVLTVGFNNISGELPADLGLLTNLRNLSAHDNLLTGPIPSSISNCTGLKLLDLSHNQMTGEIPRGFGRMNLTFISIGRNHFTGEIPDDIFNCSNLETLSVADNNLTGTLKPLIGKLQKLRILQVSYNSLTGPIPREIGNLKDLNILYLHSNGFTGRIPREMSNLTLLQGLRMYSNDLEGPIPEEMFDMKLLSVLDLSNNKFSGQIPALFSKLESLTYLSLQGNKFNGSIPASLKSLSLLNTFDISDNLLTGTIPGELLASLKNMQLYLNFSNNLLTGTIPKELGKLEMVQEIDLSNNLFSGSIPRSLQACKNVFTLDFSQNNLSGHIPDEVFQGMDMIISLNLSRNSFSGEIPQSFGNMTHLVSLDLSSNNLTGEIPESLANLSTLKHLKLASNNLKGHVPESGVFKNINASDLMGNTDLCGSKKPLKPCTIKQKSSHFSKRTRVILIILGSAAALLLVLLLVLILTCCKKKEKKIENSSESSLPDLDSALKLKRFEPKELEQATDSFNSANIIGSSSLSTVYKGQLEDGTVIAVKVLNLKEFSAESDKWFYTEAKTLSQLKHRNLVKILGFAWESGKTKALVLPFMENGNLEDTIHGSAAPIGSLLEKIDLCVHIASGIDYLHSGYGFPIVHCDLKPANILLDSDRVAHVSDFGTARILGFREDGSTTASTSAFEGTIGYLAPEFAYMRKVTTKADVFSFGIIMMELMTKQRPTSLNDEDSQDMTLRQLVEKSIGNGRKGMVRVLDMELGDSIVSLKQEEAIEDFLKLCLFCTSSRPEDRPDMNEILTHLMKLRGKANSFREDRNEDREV
The experiment in a line: bimolecular fluorescence complementation in N. benthamiana, with plasmolysis (panel E).

A further assay addresses T3, BAK1-HA (Arabidopsis thaliana, UniProt Q94F62 26-615).
T3 construct: Transiently expressed in N. benthamiana; also called LRR-RK BAK1; 35S::BAK1-HA; not shown: HA tag
T3 sequence (looked up): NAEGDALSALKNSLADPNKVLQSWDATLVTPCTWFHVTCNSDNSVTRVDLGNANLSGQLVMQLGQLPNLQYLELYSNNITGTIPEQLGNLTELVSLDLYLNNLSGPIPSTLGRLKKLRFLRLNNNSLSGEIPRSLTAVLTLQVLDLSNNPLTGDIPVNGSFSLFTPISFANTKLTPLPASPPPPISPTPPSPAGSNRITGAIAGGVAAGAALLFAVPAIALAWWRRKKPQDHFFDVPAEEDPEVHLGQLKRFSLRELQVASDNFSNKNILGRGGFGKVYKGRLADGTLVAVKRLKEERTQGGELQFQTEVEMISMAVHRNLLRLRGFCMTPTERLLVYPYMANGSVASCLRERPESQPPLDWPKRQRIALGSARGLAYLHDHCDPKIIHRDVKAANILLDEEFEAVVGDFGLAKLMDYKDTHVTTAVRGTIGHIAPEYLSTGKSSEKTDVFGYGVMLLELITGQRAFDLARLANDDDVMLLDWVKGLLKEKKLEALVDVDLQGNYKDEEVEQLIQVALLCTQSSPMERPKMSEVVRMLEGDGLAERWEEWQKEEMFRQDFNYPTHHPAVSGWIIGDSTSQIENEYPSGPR
Description: co-immunoprecipitation with GFP Trap beads after transient co-expression in N. benthamiana.

Description for BAK1-HA: Total proteins (input) were subjected to immunoprecipitation with GFP Trap beads followed by immunoblot analysis. […] Total proteins (input) were subjected to immunoprecipitation with GFP Trap beads followed by immunoblot analysis. […] All results shown are representative of three independent experiments.
Total proteins were extracted in a buffer including 100 mM Tris-HCl pH 7.5, 150 mM NaCl, 5 mM EDTA, 5% glycerol, 10 mM DTT, 0.5% Triton X-100, 1% Igepal and protease inhibitors (Sigma). For co-immunoprecipitation, anti-HA beads (Roche) or anti-GFP-TRAP-A beads (Chromotek) were incubated with total proteins and then washed with the extraction buffer. Proteins were fractioned on SDS-PAGE, transferred onto PVDF membranes (Bio-Rad) and then detected using specific antibodies. […] Epitope-tagged proteins were detected with a peroxidase-conjugated anti-HA-HRP (Santa Cruz); mouse monoclonal anti-GFP antibodies (AMS); or anti-HRP antibodies (Santa Cruz). The secondary anti-rabbit-HRP antibodies (Sigma) were used when appropriate. Immunodetection was performed with ECL chemiluminescence reagent (GE).
Description for EFR-YFPc / EFR-YFPn: Interaction assays were performed in presence or absence of the auxotrophic amino acid leucine (Leu). […] Scale bar corresponds to 20 μm. Photographs were taken 2 days after infiltration and are representative of the total observations (n=60). All results shown are representative of three independent experiments.
Description for FLS2-YFPc / FLS2-YFPn: Plasmolysis experiment was performed in the presence of 5% NaCl for 5 min. […] Photographs were taken 2 days after infiltration and are representative of the total observations (n=60).

B1: GRP7-YFPn / GRP7-YFPc (other)
chain: MASGDVEYRCFVGGLAWATDDRALETAFAQYGDVIDSKIINDRETGRSRGFGFVTFKDEKAMKDAIEGMNGQDLDGRSITVNEAQSRGSGGGGGHRGGGGGGYRSGGGGGYSGGGGSYGGGGGRREGGGGYSGGGGGYSSRGGGGGSYGGGRREGGGGYGGGEGGGYGGSGGGGGW
notes: Two BiFC constructs (N- or C-terminal YFP half) used in both combinations; Results are reported for them together; also called GRP7-YFPn/c; not shown: split-YFP half (YFPn or YFPc) from the pAM-PAT-35S BiFC vector
Consider B1, for which the binding result with EFR-YFPc / EFR-YFPn and in the assay with FLS2-YFPc / FLS2-YFPn was “binds” each time.

B2: GRP7-eGFP (other)
chain: MASGDVEYRCFVGGLAWATDDRALETAFAQYGDVIDSKIINDRETGRSRGFGFVTFKDEKAMKDAIEGMNGQDLDGRSITVNEAQSRGSGGGGGHRGGGGGGYRSGGGGGYSGGGGSYGGGGGRREGGGGYSGGGGGYSSRGGGGGSYGGGRREGGGGYGGGEGGGYGGSGGGGGW
notes: Transiently expressed in N. benthamiana under the 35S promoter; also called 35S::GRP7-eGFP; not shown: C-terminal enhanced green fluorescent protein (eGFP) tag
For the molecule B2, in the assay with BAK1-HA, the binding result is recorded as “no binding”.
